B2: full length progesterone receptor isoform A (PR-A) (receptor, human, UniProt P06401-2 1-769, looked up)
chain: MSRSGCKVGDSSGTAAAHKVLPRGLSPARQLLLPASESPHWSGAPVKPSPQAAAVEVEEEDGSESEESAGPLLKGKPRALGGAAAGGGAAAVPPGAAAGGVALVPKEDSRFSAPRVALVEQDAPMAPGRSPLATTVMDFIHVPILPLNHALLAARTRQLLEDESYDGGAGAASAFAPPRSSPCASSTPVAVGDFPDCAYPPDAEPKDDAYPLYSDFQPPALKIKEEEEGAEASARSPRSYLVAGANPAAFPDFPLGPPPPLPPRATPSRPGEAAVTAAPASASVSSASSSGSTLECILYKAEGAPPQQGPFAPPPCKAPGASGCLLPRDGLPSTSASAAAAGAAPALYPALGLNGLPQLGYQAAVLKEGLPQVYPPYLNYLRPDSEASQSPQYSFESLPQKICLICGDEASGCHYGVLTCGSCKVFFKRAMEGQHNYLCAGRNDCIVDKIRRKNCPACRLRKCCQAGMVLGGRKFKKFNKVRVVRALDAVALPQPVGVPNESQALSQRFTFSPGQDIQLIPPLINLLMSIEPDVIYAGHDNTKPDTSSSLLTSLNQLGERQLLSVVKWSKSLPGFRNLHIDDQITLIQYSWMSLMVFGLGWRSYKHVSGQMLYFAPDLILNEQRMKESSFYSLCLTMWQIPQEFVKLQVSQEEFLCMKVLLLLNTIPLEGLRSQTQFEEMRSSYIRELIKAIGLRQKGVVSSSQRFYQLTKLLDNLHDLVKQLHLYCLNTFIQSRALSVEFPEMMSEVIAAQLPKILAGMVKPLLFHKK
B3: full length progesterone receptor isoform B (PR-B) (receptor, human, UniProt P06401 1-933, looked up)
chain: MTELKAKGPRAPHVAGGPPSPEVGSPLLCRPAAGPFPGSQTSDTLPEVSAIPISLDGLLFPRPCQGQDPSDEKTQDQQSLSDVEGAYSRAEATRGAGGSSSSPPEKDSGLLDSVLDTLLAPSGPGQSQPSPPACEVTSSWCLFGPELPEDPPAAPATQRVLSPLMSRSGCKVGDSSGTAAAHKVLPRGLSPARQLLLPASESPHWSGAPVKPSPQAAAVEVEEEDGSESEESAGPLLKGKPRALGGAAAGGGAAAVPPGAAAGGVALVPKEDSRFSAPRVALVEQDAPMAPGRSPLATTVMDFIHVPILPLNHALLAARTRQLLEDESYDGGAGAASAFAPPRSSPCASSTPVAVGDFPDCAYPPDAEPKDDAYPLYSDFQPPALKIKEEEEGAEASARSPRSYLVAGANPAAFPDFPLGPPPPLPPRATPSRPGEAAVTAAPASASVSSASSSGSTLECILYKAEGAPPQQGPFAPPPCKAPGASGCLLPRDGLPSTSASAAAAGAAPALYPALGLNGLPQLGYQAAVLKEGLPQVYPPYLNYLRPDSEASQSPQYSFESLPQKICLICGDEASGCHYGVLTCGSCKVFFKRAMEGQHNYLCAGRNDCIVDKIRRKNCPACRLRKCCQAGMVLGGRKFKKFNKVRVVRALDAVALPQPVGVPNESQALSQRFTFSPGQDIQLIPPLINLLMSIEPDVIYAGHDNTKPDTSSSLLTSLNQLGERQLLSVVKWSKSLPGFRNLHIDDQITLIQYSWMSLMVFGLGWRSYKHVSGQMLYFAPDLILNEQRMKESSFYSLCLTMWQIPQEFVKLQVSQEEFLCMKVLLLLNTIPLEGLRSQTQFEEMRSSYIRELIKAIGLRQKGVVSSSQRFYQLTKLLDNLHDLVKQLHLYCLNTFIQSRALSVEFPEMMSEVIAAQLPKILAGMVKPLLFHKK

What was measured:
truncated PR-B (233-933) = target: T1, truncated PR-B (233-933) (human, UniProt P06401 233-933); assay: HDX-MS
T1 sequence (looked up): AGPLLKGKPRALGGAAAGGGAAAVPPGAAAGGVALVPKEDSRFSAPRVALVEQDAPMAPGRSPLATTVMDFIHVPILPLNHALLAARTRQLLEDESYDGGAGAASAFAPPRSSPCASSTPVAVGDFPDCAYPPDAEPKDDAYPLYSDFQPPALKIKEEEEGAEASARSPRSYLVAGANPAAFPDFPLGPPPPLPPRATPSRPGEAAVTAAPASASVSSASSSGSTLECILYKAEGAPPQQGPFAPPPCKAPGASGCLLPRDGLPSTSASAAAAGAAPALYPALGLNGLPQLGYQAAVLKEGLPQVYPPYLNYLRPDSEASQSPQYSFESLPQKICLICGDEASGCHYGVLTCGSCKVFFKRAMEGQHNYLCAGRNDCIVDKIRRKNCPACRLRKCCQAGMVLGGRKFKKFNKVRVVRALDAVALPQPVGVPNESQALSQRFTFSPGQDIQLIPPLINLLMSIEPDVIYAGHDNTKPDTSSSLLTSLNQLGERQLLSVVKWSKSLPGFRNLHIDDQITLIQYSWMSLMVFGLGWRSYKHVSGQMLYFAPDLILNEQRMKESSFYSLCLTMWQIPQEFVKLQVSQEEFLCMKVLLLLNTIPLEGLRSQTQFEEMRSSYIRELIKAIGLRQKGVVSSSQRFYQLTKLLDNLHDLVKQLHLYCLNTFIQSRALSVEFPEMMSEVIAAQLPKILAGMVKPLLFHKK

[1] = target: B3; assay: HDX-MS
[2] = target: B2; assay: HDX-MS
SEC = target: the molecule itself; assay: SEC

B1: C-terminal core DNA binding domain (aa 159-339) of human TATA-binding protein (TBPc) (domain or fragment, UniProt P20226 159-339, looked up)
chain: SGIVPQLQNIVSTVNLGCKLDLKTIALRARNAEYNPKRFAAVIMRIREPRTTALIFSSGKMVCTGAKSEEQSRLAARKYARVVQKLGFPAKFLDFKIQNMVGSCDVKFPIRLEGLVLTHQQFSSYEPELFPGLIYRMIKPRIVLLIFVSGKVVLTGAKVRAEIYEAFENIYPILKGFRKTT
Truncated PR-B (233-933)
  binding result: binds
[1]
  binding result: binds
[2]
  binding result: binds

## B2
SEC
  stoichiometry N: 2

## B3
SEC
  stoichiometry N: 2
